Read-outs that look alike come from different tables or passages of the source.
What was measured:
Test in all cases: pull-down
ΔWRC230 [1] = molecular target: T1, ΔWRC230 (human, UniProt Q7L576 1-1253; Q9Y2A7 1-1128; Q92558 1-230; Q9NYB9 1-158; Q8WUW1 1-75)
WRC230WCA [2] = molecular target: T2, WRC230WCA (human, UniProt Q7L576 1-1253; Q9Y2A7 1-1128; Q92558 1-230; Q92558 485-559; Q9NYB9 1-158; …)
ΔWRC230 [3] = molecular target: T1, ΔWRC230; remark: listed apart in the source
WRC230WCA [4] = molecular target: T2, WRC230WCA; remark: listed apart in the source

B1: GST-Arf1 (natural protein)
chain: not shown
- Kd (ΔWRC230 [1]): ~22.6 µM
- Kd (WRC230WCA [2]): ~107 µM
- Kd (ΔWRC230 [3]): ~0.66 µM
- Kd (WRC230WCA [4]): ~8.2 µM
